Test system: mutant form of α-Gal A expressed in HEK-293 cells
Test: HEK assay (GLP HEK / Migalastat Amenability Assay): α-Gal A activity in lysates of transiently transfected HEK-293 cells incubated with or without 10 μM migalastat
Format: cell-based, human
Details: for Absolute increase (% WT) / Relative increase: 10 μM migalastat versus baseline; for Baseline α-Gal A activity (% WT): absence of migalastat; for Baseline α-Gal A activity (% WT) / 10 μM migalastat α-Gal A activity (% WT): percentage of baseline wild-type α-Gal A activity; for Baseline α-Gal A activity (% WT) / Baseline α-Gal A activity / 10 μM migalastat α-Gal A activity / 10 μM migalastat α-Gal A activity (% WT): mean ± SEM; for Baseline α-Gal A activity / 10 μM migalastat α-Gal A activity: lysates of HEK-293 cells transiently transfected with the mutant form; for Baseline α-Gal A activity: incubated 5 days in absence of migalastat; for 10 μM migalastat α-Gal A activity: incubated 5 days with 10 μM migalastat; for 10 μM migalastat α-Gal A activity (% WT): with 10 μM migalastat, 5 days
In short: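 HEK-293 cells transiently transfected with mutant α-Gal A and incubated with or without 10 μM migalastat; lysate activity given as nmol free 4-MU released per mg protein per hour. Values are mean±SEM.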

B1: Q306E (protein)
chain: MQLRNPELHLGCALALRFLALVSWDIPGARALDNGLARTPTMGWLHWERFMCNLDCQEEPDSCISEKLFMEMAELMVSEGWKDAGYEYLCIDDCWMAPQRDSEGRLQADPQRFPHGIRQLANYVHSKGLKLGIYADVGNKTCAGFPGSFGYYDIDAQTFADWGVDLLKFDGCYCDSLENLADGYKHMSLALNRTGRSIVYSCEWPLYMWPFQKPNYTEIRQYCNHWRNFADIDDSWKSIKSILDWTSFNQERIVDVAGPGGWNDPDMLVIGNFGLSWNQQVTQMALWAIMAAPLFMSNDLRHISPEAKALLQDKDVIAINQDPLGKQGYQLRQGDNFEVWERPLSGLAWAVAMINRQEIGGPRSYTIAVASLGKGVACNPACFITQLLPVKRKLGFYEWTSRLRSHINPTGTVLLQLENTMQMSLKDLL
Absolute increase (% WT): 19.7 % WT | Relative increase: 1.2 | Baseline α-Gal A activity (% WT): 82 ± 2.8 % WT | Baseline α-Gal A activity: 31745 ± 2212 nmol/mg/h | 10 μM migalastat α-Gal A activity: 39019 ± 2405 nmol/mg/h | 10 μM migalastat α-Gal A activity (% WT): 101.7 ± 4.2 % WT

B2: A307S (protein)
chain: MQLRNPELHLGCALALRFLALVSWDIPGARALDNGLARTPTMGWLHWERFMCNLDCQEEPDSCISEKLFMEMAELMVSEGWKDAGYEYLCIDDCWMAPQRDSEGRLQADPQRFPHGIRQLANYVHSKGLKLGIYADVGNKTCAGFPGSFGYYDIDAQTFADWGVDLLKFDGCYCDSLENLADGYKHMSLALNRTGRSIVYSCEWPLYMWPFQKPNYTEIRQYCNHWRNFADIDDSWKSIKSILDWTSFNQERIVDVAGPGGWNDPDMLVIGNFGLSWNQQVTQMALWAIMAAPLFMSNDLRHISPQSKALLQDKDVIAINQDPLGKQGYQLRQGDNFEVWERPLSGLAWAVAMINRQEIGGPRSYTIAVASLGKGVACNPACFITQLLPVKRKLGFYEWTSRLRSHINPTGTVLLQLENTMQMSLKDLL
Absolute increase (% WT): 27.7 % WT | Relative increase: 1.3 | Baseline α-Gal A activity (% WT): 85.9 ± 4.5 % WT | Baseline α-Gal A activity: 29300 ± 2037 nmol/mg/h | 10 μM migalastat α-Gal A activity: 38558 ± 2274 nmol/mg/h | 10 μM migalastat α-Gal A activity (% WT): 113.6 ± 5.2 % WT

B3: A307V (protein)
chain: MQLRNPELHLGCALALRFLALVSWDIPGARALDNGLARTPTMGWLHWERFMCNLDCQEEPDSCISEKLFMEMAELMVSEGWKDAGYEYLCIDDCWMAPQRDSEGRLQADPQRFPHGIRQLANYVHSKGLKLGIYADVGNKTCAGFPGSFGYYDIDAQTFADWGVDLLKFDGCYCDSLENLADGYKHMSLALNRTGRSIVYSCEWPLYMWPFQKPNYTEIRQYCNHWRNFADIDDSWKSIKSILDWTSFNQERIVDVAGPGGWNDPDMLVIGNFGLSWNQQVTQMALWAIMAAPLFMSNDLRHISPQVKALLQDKDVIAINQDPLGKQGYQLRQGDNFEVWERPLSGLAWAVAMINRQEIGGPRSYTIAVASLGKGVACNPACFITQLLPVKRKLGFYEWTSRLRSHINPTGTVLLQLENTMQMSLKDLL
Absolute increase (% WT): 34.7 % WT | Relative increase: 2.3 | Baseline α-Gal A activity (% WT): 27.5 ± 2 % WT | Baseline α-Gal A activity: 11478 ± 1200 nmol/mg/h | 10 μM migalastat α-Gal A activity: 25989 ± 2015 nmol/mg/h | 10 μM migalastat α-Gal A activity (% WT): 62.2 ± 3.3 % WT

B4: K308I (protein)
chain: MQLRNPELHLGCALALRFLALVSWDIPGARALDNGLARTPTMGWLHWERFMCNLDCQEEPDSCISEKLFMEMAELMVSEGWKDAGYEYLCIDDCWMAPQRDSEGRLQADPQRFPHGIRQLANYVHSKGLKLGIYADVGNKTCAGFPGSFGYYDIDAQTFADWGVDLLKFDGCYCDSLENLADGYKHMSLALNRTGRSIVYSCEWPLYMWPFQKPNYTEIRQYCNHWRNFADIDDSWKSIKSILDWTSFNQERIVDVAGPGGWNDPDMLVIGNFGLSWNQQVTQMALWAIMAAPLFMSNDLRHISPQAIALLQDKDVIAINQDPLGKQGYQLRQGDNFEVWERPLSGLAWAVAMINRQEIGGPRSYTIAVASLGKGVACNPACFITQLLPVKRKLGFYEWTSRLRSHINPTGTVLLQLENTMQMSLKDLL
Absolute increase (% WT): 24.2 % WT | Relative increase: 1.5 | Baseline α-Gal A activity (% WT): 48.6 ± 3.9 % WT | Baseline α-Gal A activity: 19195 ± 1555 nmol/mg/h | 10 μM migalastat α-Gal A activity: 29251 ± 2026 nmol/mg/h | 10 μM migalastat α-Gal A activity (% WT): 72.7 ± 3.6 % WT

B5: Q306L (protein)
chain: MQLRNPELHLGCALALRFLALVSWDIPGARALDNGLARTPTMGWLHWERFMCNLDCQEEPDSCISEKLFMEMAELMVSEGWKDAGYEYLCIDDCWMAPQRDSEGRLQADPQRFPHGIRQLANYVHSKGLKLGIYADVGNKTCAGFPGSFGYYDIDAQTFADWGVDLLKFDGCYCDSLENLADGYKHMSLALNRTGRSIVYSCEWPLYMWPFQKPNYTEIRQYCNHWRNFADIDDSWKSIKSILDWTSFNQERIVDVAGPGGWNDPDMLVIGNFGLSWNQQVTQMALWAIMAAPLFMSNDLRHISPLAKALLQDKDVIAINQDPLGKQGYQLRQGDNFEVWERPLSGLAWAVAMINRQEIGGPRSYTIAVASLGKGVACNPACFITQLLPVKRKLGFYEWTSRLRSHINPTGTVLLQLENTMQMSLKDLL
Absolute increase (% WT): 19.6 % WT | Relative increase: 1.3 | Baseline α-Gal A activity (% WT): 56.9 ± 4 % WT | Baseline α-Gal A activity: 19792 ± 1899 nmol/mg/h | 10 μM migalastat α-Gal A activity: 26515 ± 1960 nmol/mg/h | 10 μM migalastat α-Gal A activity (% WT): 76.4 ± 3.4 % WT

B6: A307D (protein)
chain: MQLRNPELHLGCALALRFLALVSWDIPGARALDNGLARTPTMGWLHWERFMCNLDCQEEPDSCISEKLFMEMAELMVSEGWKDAGYEYLCIDDCWMAPQRDSEGRLQADPQRFPHGIRQLANYVHSKGLKLGIYADVGNKTCAGFPGSFGYYDIDAQTFADWGVDLLKFDGCYCDSLENLADGYKHMSLALNRTGRSIVYSCEWPLYMWPFQKPNYTEIRQYCNHWRNFADIDDSWKSIKSILDWTSFNQERIVDVAGPGGWNDPDMLVIGNFGLSWNQQVTQMALWAIMAAPLFMSNDLRHISPQDKALLQDKDVIAINQDPLGKQGYQLRQGDNFEVWERPLSGLAWAVAMINRQEIGGPRSYTIAVASLGKGVACNPACFITQLLPVKRKLGFYEWTSRLRSHINPTGTVLLQLENTMQMSLKDLL
Absolute increase (% WT): 35.9 % WT | Relative increase: 1.3 | Baseline α-Gal A activity (% WT): 126 ± 5.7 % WT | Baseline α-Gal A activity: 42522 ± 2430 nmol/mg/h | 10 μM migalastat α-Gal A activity: 54502 ± 3031 nmol/mg/h | 10 μM migalastat α-Gal A activity (% WT): 161.9 ± 8.6 % WT

B7: A307G (protein)
chain: MQLRNPELHLGCALALRFLALVSWDIPGARALDNGLARTPTMGWLHWERFMCNLDCQEEPDSCISEKLFMEMAELMVSEGWKDAGYEYLCIDDCWMAPQRDSEGRLQADPQRFPHGIRQLANYVHSKGLKLGIYADVGNKTCAGFPGSFGYYDIDAQTFADWGVDLLKFDGCYCDSLENLADGYKHMSLALNRTGRSIVYSCEWPLYMWPFQKPNYTEIRQYCNHWRNFADIDDSWKSIKSILDWTSFNQERIVDVAGPGGWNDPDMLVIGNFGLSWNQQVTQMALWAIMAAPLFMSNDLRHISPQGKALLQDKDVIAINQDPLGKQGYQLRQGDNFEVWERPLSGLAWAVAMINRQEIGGPRSYTIAVASLGKGVACNPACFITQLLPVKRKLGFYEWTSRLRSHINPTGTVLLQLENTMQMSLKDLL
Absolute increase (% WT): 23.4 % WT | Relative increase: 1.5 | Baseline α-Gal A activity (% WT): 52.9 ± 2.5 % WT | Baseline α-Gal A activity: 17871 ± 1029 nmol/mg/h | 10 μM migalastat α-Gal A activity: 26053 ± 1631 nmol/mg/h | 10 μM migalastat α-Gal A activity (% WT): 76.3 ± 3.1 % WT

B8: Q306P (protein)
chain: MQLRNPELHLGCALALRFLALVSWDIPGARALDNGLARTPTMGWLHWERFMCNLDCQEEPDSCISEKLFMEMAELMVSEGWKDAGYEYLCIDDCWMAPQRDSEGRLQADPQRFPHGIRQLANYVHSKGLKLGIYADVGNKTCAGFPGSFGYYDIDAQTFADWGVDLLKFDGCYCDSLENLADGYKHMSLALNRTGRSIVYSCEWPLYMWPFQKPNYTEIRQYCNHWRNFADIDDSWKSIKSILDWTSFNQERIVDVAGPGGWNDPDMLVIGNFGLSWNQQVTQMALWAIMAAPLFMSNDLRHISPPAKALLQDKDVIAINQDPLGKQGYQLRQGDNFEVWERPLSGLAWAVAMINRQEIGGPRSYTIAVASLGKGVACNPACFITQLLPVKRKLGFYEWTSRLRSHINPTGTVLLQLENTMQMSLKDLL
Absolute increase (% WT): 30.0 % WT | Relative increase: 1.5 | Baseline α-Gal A activity (% WT): 57.4 ± 2.8 % WT | Baseline α-Gal A activity: 19933 ± 1648 nmol/mg/h | 10 μM migalastat α-Gal A activity: 29495 ± 1671 nmol/mg/h | 10 μM migalastat α-Gal A activity (% WT): 87.5 ± 4.8 % WT

B9: A307P (protein)
chain: MQLRNPELHLGCALALRFLALVSWDIPGARALDNGLARTPTMGWLHWERFMCNLDCQEEPDSCISEKLFMEMAELMVSEGWKDAGYEYLCIDDCWMAPQRDSEGRLQADPQRFPHGIRQLANYVHSKGLKLGIYADVGNKTCAGFPGSFGYYDIDAQTFADWGVDLLKFDGCYCDSLENLADGYKHMSLALNRTGRSIVYSCEWPLYMWPFQKPNYTEIRQYCNHWRNFADIDDSWKSIKSILDWTSFNQERIVDVAGPGGWNDPDMLVIGNFGLSWNQQVTQMALWAIMAAPLFMSNDLRHISPQPKALLQDKDVIAINQDPLGKQGYQLRQGDNFEVWERPLSGLAWAVAMINRQEIGGPRSYTIAVASLGKGVACNPACFITQLLPVKRKLGFYEWTSRLRSHINPTGTVLLQLENTMQMSLKDLL
Absolute increase (% WT): 12.3 % WT | Relative increase: 1.4 | Baseline α-Gal A activity (% WT): 32.8 ± 1.7 % WT | Baseline α-Gal A activity: 11388 ± 905 nmol/mg/h | 10 μM migalastat α-Gal A activity: 15572 ± 1124 nmol/mg/h | 10 μM migalastat α-Gal A activity (% WT): 45.2 ± 2.1 % WT
